Molecular target: purified β protein (β clamp) (UniProt P0A988)
Assay: SPR

B1: His-6-tagged TnsE, purified (natural protein)
chain: MVRLATFNDNVQVVHIGHLFRNSGHKEWRIFVWFNPMQERKWTRFTHLPLLSRAKVVNSTTKQINKADRVIEFEASDLQRAKIIDFPNLSSFASVRNKDGAQSSFIYEAETPYSKTRYHIPQLELARSLFLINSYFCRSCLSSTALQQEFDVQYEVERDHLEIRILPSSSFPKGALEQSAVVQLLVWLFSDQDVMDSYESIFRHYQQNREIKNGVESWCFSFDPPPMQGWKLHVKGRSSNEDKDYLVEEIVGLEINAMLPSTTAISHASFQEKEAGDGSTQHIAVSTESVVDDEHLQLDDEETANIDTDTRVIEAEPTWISFSRPSRIEKSRRARKSSQTILEKEEATTSENSNLVSTDEPHLGGVLAAADVGGKQDATNYNSIFANRFAAFDELLSILKTKFACRVLFEETLVLPKVGRSRLHLCKDGSPRVIKAVGVQRNGSEFVLLEVDASDGVKMLSTKVLSGVDSETWRNDFEKIRRGVVKSSLNWPNSLFDQLYGQDGHRGVNHPKGLGELQVSREDMEGWAERVVREQFTH
Kd: 2440 nM
